In article PMC7035975 (Journal of molecular and cellular cardiology, 2019):

Target: the molecule itself
Assay: SDS-PAGE and immunoblot of the PLB pentamer

B1: L31A phospholamban mutant (untagged) (natural protein, human, UniProt P26678 1-52, looked up)
chain: MEKVQYLTRSAIRRASTIEMPQQARQKLQNAFINFCLILICLLLICIIVMLL
For B1, the “stoichiometry N” value was 5.
